This note sets out measurements from patent US20170066831A1 (Janssen / Centocor, published 2017).

Assay [1] concerns the target T1, human ST2L, full length, on cells (human, UniProt Q01638 19-556).
T1 sequence: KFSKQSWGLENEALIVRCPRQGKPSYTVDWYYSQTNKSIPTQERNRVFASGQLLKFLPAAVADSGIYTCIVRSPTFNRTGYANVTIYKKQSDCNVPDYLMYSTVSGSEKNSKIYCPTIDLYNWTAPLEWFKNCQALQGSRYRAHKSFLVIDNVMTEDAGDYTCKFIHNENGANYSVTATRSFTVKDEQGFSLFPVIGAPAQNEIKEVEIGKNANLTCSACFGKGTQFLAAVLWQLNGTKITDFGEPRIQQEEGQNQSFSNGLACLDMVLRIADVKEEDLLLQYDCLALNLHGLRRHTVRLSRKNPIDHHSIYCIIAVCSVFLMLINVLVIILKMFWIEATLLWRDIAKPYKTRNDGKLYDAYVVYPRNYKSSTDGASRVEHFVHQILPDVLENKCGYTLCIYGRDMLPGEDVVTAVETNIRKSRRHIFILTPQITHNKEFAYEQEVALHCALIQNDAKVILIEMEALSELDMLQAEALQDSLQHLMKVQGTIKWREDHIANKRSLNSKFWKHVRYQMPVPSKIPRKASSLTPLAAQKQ
Description: cell-based or functional assay.

Assay [2] concerns the target T2, human ST2L extracellular domain with C-terminal His6 tag (human, UniProt Q01638 19-328).
T2 construct: also called huST2L-ECD; ST2L-ECD
T2 sequence: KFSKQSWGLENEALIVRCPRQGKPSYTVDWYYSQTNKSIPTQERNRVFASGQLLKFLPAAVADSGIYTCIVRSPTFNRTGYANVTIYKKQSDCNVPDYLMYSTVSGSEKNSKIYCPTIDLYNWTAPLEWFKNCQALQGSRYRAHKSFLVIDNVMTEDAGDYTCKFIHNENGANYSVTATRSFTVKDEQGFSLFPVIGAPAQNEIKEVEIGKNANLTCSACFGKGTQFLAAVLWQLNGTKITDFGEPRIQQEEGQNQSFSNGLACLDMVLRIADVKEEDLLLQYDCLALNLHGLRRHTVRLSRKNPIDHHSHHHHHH
Description: RLB ELISA: biotinylated IL-33 on coated huST2L-ECD, antibody titrated. The protocol:
96-well plate was coated with 50 μl of 4 μg/ml human ST2L-ECD (amino acids 19-328 of SEQ ID NO: 1) or 2 μg/ml cyno ST2L-ECD (amino acids 19-321 of SEQ ID NO: 2) having C-terminal His₆ tag in bicarbonate buffer at 4° C. for 16 hrs. All subsequent steps were performed at room temperature. Plate was blocked with 200 μl blocking buffer, and was washed 3 times with 300 μl of wash buffer containing PBS+0.05% Tween. 30 μl of various dilutions of anti-ST2L mAbs were added to the wells and incubated for 1 hour. For human receptor-ligand binding assay 20 μl of biotinylated human IL-33 (residues 112-270 of SEQ ID NO: 3) was added at 100 ng/ml final concentration and incubated for 30 minutes. For cyno receptor-ligand binding assay 20 μl of biotinylated cyno IL-33 (residues 112-269 of SEQ ID NO: 4) was added at 200 ng/ml final concentration and incubated for 30 minutes. The plate was washed 3 times with 300 μl of wash buffer. 50 μl of 0.2 μg/ml Streptavidin-HRP (Jackson Immunoresearch) was added and incubated for 30 min. The plate was washed 3 times with 300 μl of wash buffer containing PBS+0.05% Tween. 50 μl of TMB substrate (EMD Biosciences) was added to each well. Reaction was stopped by the addition of 100 μl of 0.2N Sulfuric Acid. OD450 were measured using Envision plate reader (Perkin Elmer).
On the technique in general: An ELISA detects its analyte on a solid surface through an enzyme-linked reagent.

Assay [3] has as its target T3, cynomolgus (Macaca fascicularis) ST2L extracellular domain with C-terminal His6 tag (Macaca fascicularis (cynomolgus), UniProt Q01638 19-321 (human entry)).
T3 construct: also called cyno ST2L-ECD; cynoST2L-ECD
T3 chain: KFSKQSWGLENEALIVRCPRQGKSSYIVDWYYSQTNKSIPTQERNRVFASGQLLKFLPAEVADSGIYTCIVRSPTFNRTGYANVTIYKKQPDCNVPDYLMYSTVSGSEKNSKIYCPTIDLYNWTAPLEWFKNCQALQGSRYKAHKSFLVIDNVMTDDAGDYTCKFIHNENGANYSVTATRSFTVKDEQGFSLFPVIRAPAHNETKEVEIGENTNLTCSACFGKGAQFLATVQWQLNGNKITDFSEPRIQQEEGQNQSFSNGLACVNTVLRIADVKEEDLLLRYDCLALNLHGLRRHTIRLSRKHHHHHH
Description: SPR, mAb captured, ST2L-ECD in solution. Background: In SPR one partner is held on a chip, and binding of the other changes the refractive index at the surface.

Assay [4] addresses T2, human ST2L extracellular domain with …. Description: SPR, mAb captured, ST2L-ECD in solution.

B1: STLM108 (antibody, V domains shown)
VH: EVQLLESGGGLVQPGGSLRLSCAASGFTFSIYDMIWVRQAPGKGLEWVSTIKGEGGGTYYADSVKGRFTISRDNSKNTLYLQMNSLRAEDTAVYYCARDPWSTEGSFFVLDYWGQGTLVTVSS
VL: EIVLTQSPATLSLSPGERATLSCRASQSVDDDLAWYQQKPGQAPRLLIYDASNRATGIPARFSGSGSGTDFTLTISSLEPEDFAVYYCQQYIGAPITFGQGTKVEIK
notes: frameworks VH3-23 / Vk-L6
For the molecule B1, the “RGA IC50” value in assay [1] worked out at 2.34 µg/mL. Half-maximal inhibition in assay [2] (IC50) required 0.23 µg/mL. In assay [3], binding was characterised by a dissociation constant (Kd) of 0.029 nM; the off-rate (koff) (commonly the rate constant with which the complex falls apart) came to 0.000598 s⁻¹; the kon (as a rule, a measure of how fast the partners come together) is 2.05e+07 M⁻¹ s⁻¹. Besides, in assay [4], the Kd (usually the equilibrium constant for the complex coming apart) was 0.097 nM, the koff is 0.000222 s⁻¹ and the kon is 2.29e+06 M⁻¹ s⁻¹.

B2: STLM216 (antibody, V domains shown)
VH: EVQLLESGGGLVQPGGSLRLSCAASGFTFSSYDMFWVRQAPGKGLEWVSDIKGEGGATNYADSVKGRFTISRDNSKNTLYLQMNSLRAEDTAVYYCARDPWSTEGSFFVLDYWGQGTLVTVSS
VL: EIVLTQSPATLSLSPGERATLSCRASQSVDDDLAWYQQKPGQAPRLLIYDASNRATGIPARFSGSGSGTDFTLTISSLEPEDFAVYYCQQYIGAPITFGQGTKVEIK
notes: frameworks VH3-23 / Vk-L6
B2: in assay [1], the “RGA IC50” value was found to be 1.86 µg/mL. For the same molecule, half-maximal inhibition in assay [2] (IC50) required 0.3 µg/mL. In assay [3], this molecule registered a Kd of 0.003 nM, a koff of 0.000264 s⁻¹ and a kon of 7.89e+07 M⁻¹ s⁻¹. In assay [4], this molecule gave a Kd of 0.016 nM, a koff of 0.000158 s⁻¹ and an association rate constant (kon) of 9.63e+06 M⁻¹ s⁻¹.

B3: STLM207 (antibody, V domains shown)
VH: EVQLLESGGGLVQPGGSLRLSCAASGFTFSSYDMIWVRQAPGKGLEWVSTIRGEGGTTAYADSVKGRFTISRDNSKNTLYLQMNSLRAEDTAVYYCARDPWSTEGSFFVLDYWGQGTLVTVSS
VL: EIVLTQSPATLSLSPGERATLSCRASQSVDDDLAWYQQKPGQAPRLLIYDASNRATGIPARFSGSGSGTDFTLTISSLEPEDFAVYYCQQYITAPLTFGQGTKVEIK
notes: frameworks VH3-23 / Vk-L6
Take B3: in assay [1], the “RGA IC50” value stood at 2.3 µg/mL. In addition, in assay [2], the IC50 – broadly, the point on the concentration scale where inhibition reaches its midpoint – worked out at 0.36 µg/mL. In assay [3], this molecule registered a Kd of 0.021 nM, a koff of 0.00207 s⁻¹ and a kon of 1e+08 M⁻¹ s⁻¹. Besides, in assay [4], the affinity, expressed as Kd, was 0.048 nM; the koff is 0.000395 s⁻¹; the kon came to 8.33e+06 M⁻¹ s⁻¹.

B4: STLM209 (antibody, V domains shown)
VH: EVQLLESGGGLVQPGGSLRLSCAASGFTFSIYDMIWVRQAPGKGLEWVSTIRGEGGGTSYADSVKGRFTISRDNSKNTLYLQMNSLRAEDTAVYYCARDPWSTEGSFFVLDYWGQGTLVTVSS
VL: EIVLTQSPATLSLSPGERATLSCRASQSVDDDLAWYQQKPGQAPRLLIYDASNRATGIPARFSGSGSGTDFTLTISSLEPEDFAVYYCQQYITAPLTFGQGTKVEIK
notes: frameworks VH3-23 / Vk-L6
Regarding B4, the “RGA IC50” value in assay [1] was 0.97 µg/mL. This molecule returned an IC50 in assay [2] of 0.32 µg/mL. In assay [3], this molecule yielded a Kd of 0.009 nM, a koff of 0.000311 s⁻¹ and a kon of 3.39e+07 M⁻¹ s⁻¹. In assay [4], this molecule gave a Kd of 0.026 nM, a koff of 0.00017 s⁻¹ and a kon of 6.59e+06 M⁻¹ s⁻¹.

B5: STLM215 (antibody, V domains shown)
VH: EVQLLESGGGLVQPGGSLRLSCAASGFTFSSYDMFWVRQAPGKGLEWVSAIAGEGGRTYYADSVKGRFTISRDNSKNTLYLQMNSLRAEDTAVYYCARDPWSTEGSFFVLDYWGQGTLVTVSS
VL: EIVLTQSPATLSLSPGERATLSCRASQSVDDDLAWYQQKPGQAPRLLIYDASNRATGIPARFSGSGSGTDFTLTISSLEPEDFAVYYCQQYIGAPITFGQGTKVEIK
notes: frameworks VH3-23 / Vk-L6
On to B5, for which, in assay [1], the “RGA IC50” value came to 1.3 µg/mL. This molecule also registered an IC50 in assay [2] of 0.29 µg/mL. In assay [3], the Kd worked out at 0.01 nM, the koff was 0.000369 s⁻¹ and the kon is 3.54e+07 M⁻¹ s⁻¹. In assay [4], this molecule returned a Kd of 0.025 nM, a koff of 0.000172 s⁻¹ and a kon of 6.91e+06 M⁻¹ s⁻¹.

B6: STLM123 (antibody, V domains shown)
VH: EVQLLESGGGLVQPGGSLRLSCAASGFTFSDYAMFWVRQAPGKGLEWVSAIEGEGGETNYADSVKGRFTISRDNSKNTLYLQMNSLRAEDTAVYYCARDPWSTEGSFFVLDYWGQGTLVTVSS
VL: EIVLTQSPATLSLSPGERATLSCRASQSVDDDLAWYQQKPGQAPRLLIYDASNRATGIPARFSGSGSGTDFTLTISSLEPEDFAVYYCQQYITAPLTFGQGTKVEIK
notes: frameworks VH3-23 / Vk-L6
With B6, in assay [1], the “RGA IC50” value worked out at 1.25 µg/mL. This molecule also showed an IC50 in assay [2] of 0.28 µg/mL. In assay [3], this molecule yielded a dissociation constant (Kd) of 0.005 nM, a koff of 0.000519 s⁻¹ and a kon of 1e+08 M⁻¹ s⁻¹. In assay [4], binding was characterised by a dissociation constant (Kd) of 0.015 nM, the koff amounted to 0.000208 s⁻¹ and the kon amounted to 1.37e+07 M⁻¹ s⁻¹.

B7: STLM214 (antibody, V domains shown)
VH: EVQLLESGGGLVQPGGSLRLSCAASGFTFSSYDMFWVRQAPGKGLEWVSDIKGEGGRTAYADSVKGRFTISRDNSKNTLYLQMNSLRAEDTAVYYCARDPWSTEGSFFVLDYWGQGTLVTVSS
VL: EIVLTQSPATLSLSPGERATLSCRASQSVDDDLAWYQQKPGQAPRLLIYDASNRATGIPARFSGSGSGTDFTLTISSLEPEDFAVYYCQQYIDAPLTFGQGTKVEIK
notes: frameworks VH3-23 / Vk-L6
For B7, in assay [1], the “RGA IC50” value is 2.52 µg/mL. The molecule also came in with an IC50 in assay [2] of 0.28 µg/mL. In assay [3], this molecule displayed a Kd of 0.037 nM, a koff of 0.000264 s⁻¹ and a kon of 7.2e+06 M⁻¹ s⁻¹. Moreover, in assay [4], the Kd amounted to 0.033 nM, the koff is 0.000299 s⁻¹ and the kon worked out at 9.16e+06 M⁻¹ s⁻¹.

B8: STLM213 (antibody, V domains shown)
VH: EVQLLESGGGLVQPGGSLRLSCAASGFTFSFYDMIWVRQAPGKGLEWVSTIRGEGGDTNYADSVKGRFTISRDNSKNTLYLQMNSLRAEDTAVYYCARDPWSTEGSFFVLDYWGQGTLVTVSS
VL: EIVLTQSPATLSLSPGERATLSCRASQSVDDDLAWYQQKPGQAPRLLIYDASNRATGIPARFSGSGSGTDFTLTISSLEPEDFAVYYCQQYIDAPLTFGQGTKVEIK
notes: frameworks VH3-23 / Vk-L6
B8: in assay [1], the “RGA IC50” value turned out to be 0.49 µg/mL. The IC50 in assay [2] amounted to 0.34 µg/mL. In assay [3], this molecule registered a Kd of 0.008 nM, a koff of 0.000124 s⁻¹ and a kon of 1.64e+07 M⁻¹ s⁻¹. In assay [4], binding was put at a Kd of 0.014 nM, the koff was determined as 0.000108 s⁻¹ and the kon came out at 7.54e+06 M⁻¹ s⁻¹.

B9: STLM124 (antibody, V domains shown)
VH: EVQLLESGGGLVQPGGSLRLSCAASGFTFSIYDMIWVRQAPGKGLEWVSTIKGEGGGTYYADSVKGRFTISRDNSKNTLYLQMNSLRAEDTAVYYCARDPWSTEGSFFVLDYWGQGTLVTVSS
VL: EIVLTQSPATLSLSPGERATLSCRASQSVDDDLAWYQQKPGQAPRLLIYDASNRATGIPARFSGSGSGTDFTLTISSLEPEDFAVYYCQQYITAPLTFGQGTKVEIK
notes: frameworks VH3-23 / Vk-L6
Turning to B9, the “RGA IC50” value in assay [1] worked out at 0.87 µg/mL. This molecule also yielded an IC50 in assay [2] of 0.35 µg/mL. In assay [3], this molecule had a dissociation constant (Kd) of 0.03 nM, a koff of 0.00257 s⁻¹ and a kon of 8.71e+07 M⁻¹ s⁻¹. In assay [4], this molecule came in with a Kd of 0.046 nM, a koff of 0.000756 s⁻¹ and a kon of 1.65e+07 M⁻¹ s⁻¹.
